In patent CN116836277A:
Positions count from the first letter of the chain named.

B1: Anti-E2 7A4mut1 (antibody)
heavy: QVRLQESGPSLVKPSQTLSLTCTISGFSLSGNAITWVRQAPGEVPEWLGGVDNRGSAYYSPALRSRLSITRDTSKSQVSLSLYGVTVEDTAVYYCGRGVWGVDGAGYAHDYWGPGLLVTVSTASTTPPKVYPLTSCCGDTSSSIVTLGCLVSSYMPEPVTVTWNSGALTSGVHTFPAILQSSGLYSLSSVVTVPASTSGAQTFICNVAHPASSTKVDKRVGLSSDYSKCSKPPCVSRPSVFIFPPKPKDSLMITGTPEVTCVVVDVGQGDPEVQFSWFVDNVEVRTARTKPREEQFNSTFRVVSALPIQHDHWTGGKEFKCKVHSKGLPAPIVRTISRAKGQAREPQVYVLAPPQEELSKSTLSVTCLVTGFYPDYIAVEWQRARQPESEDKYGTTTSQLDADGSYFLYSRLRVDKSSWQRGDTYACVVMHEALHNHYTQKSISKPPGK
light: QAVVTQLSSVSGSLGQRVSLTCSGSSSNVGSHSVDWFQKLSESGLRIVIYGTRNRPSGVPDRFSGSKSGNTATLTITSLQTEDEADYYCATSDSTTMTYIFGDGTRLTALGQPKSAPSVTLFPPSTEELSTNKATVVCLINDFYPGSVNVVWKADGSTINQNVKTTQASKQSNSKYAASSYLTLTGSEWKSKSSYTCEVTHEGSTVTKTVKPSECS
B2: Anti-E2 7A4mut3 (antibody)
heavy: B1 heavy
light: B1 light with L20I
B3: Anti-E2 7A4mut2 (antibody, V domains shown)
VH: QVRLQESGPSLVKPSQTLSLTCTISGFSISGNAITWVRQAPGEVPEWLGGVDNRGSAYYSPALRSRLSITRDTSKSQVSLSLYGVTVEDTAVYYCGRGVWGVDGAGYAHDYWGPGLLVTVST
VL: QAVVTQLSSVSGSLGQRVSLTCSGSSSNVGSHSVDWFQKLSESGLRIVIYGTRNRPSGVPDRFSGSKSGNTATLTITSLQTEDEADYYCATSDSTTMTYIFGDGTRLTALG
B4: Anti-E2 7A4mut4 (antibody, V domains shown)
VH: B3 VH with I29L
VL: B3 VL with I49L

target: E2-Albumin偶联物; assay: indirect ELISA, E2-Albumin coated 3 ug/ml, antibody 7.81 ng/ml

Binder	OD450 [OD450]
B1	0.22
B2	0.508
B3	0.497
B4	0.461

target: E2-Albumin偶联物; assay: biosensor (AMC sensor), antibody immobilised at 5 ug/ml, E2-Albumin in gradient

Binder	Kd [nM]	koff [s⁻¹]	kon [M⁻¹ s⁻¹]
B1	9.84	0.00022	22400
B2	0.234	0.00038	1.63e+06
B3	0.188	0.00032	1.7e+06
B4	0.214	0.00044	2.06e+06

target: E2-Albumin偶联物; assay: indirect ELISA, E2-Albumin coated 3 ug/ml, antibody 15.63 ng/ml

Binder	OD450 [OD450]
B1	0.366
B2	0.979
B3	0.953
B4	0.806

target: E2-Albumin偶联物; assay: indirect ELISA, E2-Albumin coated 3 ug/ml, antibody 31.3 ng/ml

Binder	OD450 [OD450]
B1	0.94
B2	1.6
B3	1.69
B4	1.31

target: E2-Albumin偶联物; assay: indirect ELISA, E2-Albumin coated 3 ug/ml, antibody 62.5 ng/ml

Binder	OD450 [OD450]
B1	1.52
B2	2.16
B3	1.94
B4	2.12

target: E2-Albumin偶联物; assay: indirect ELISA, E2-Albumin coated 3 ug/ml, antibody 125 ng/ml

Binder	OD450 [OD450]
B1	2.06
B2	2.27
B3	2.25
B4	2.26

target: E2-Albumin偶联物; assay: indirect ELISA, E2-Albumin coated 3 ug/ml, antibody 0.00 ng/ml (blank)

Binder	OD450 [OD450]
B1	0.01
B2	0.023
B3	0.065
B4	0.047
